Assay results reported in the supplement of paper PMC10567573.

B1: NEUROD6 (parent)
chain: YHSPELTTPPGHGTLDNSKSMKPY

Variants of: B1
Experiment: protein stability index of a GFP-peptide fusion (GPS, HEK-293T) (PSI 1-6); higher = more stable
Settings: c terminus: a fixed tail appended
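Also: lentivirally expressed fusions sorted by FACS into six bins by GFP to DsRed ratio, PSI derived from sequencing read proportions per bin multiplied by bin number.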

Protein stability index of substitutions, site by site:
P4: M 2.52 | N 2.46 | W 2.82 | K 2.18 | A 2.6 | E 3.36 | T 2.08 | V 2.11 | S 2.44 | C 2.38 | F 2.21 | H 2.07 | G 2.02 | Q 2.46 | R 2.32 | D 2.97 | L 1.95 | Y 1.68 | I 2.23
E5: A 2.71 | I 2.25 | N 2.43 | G 2.14 | V 2.14 | K 2.14 | R 2.66 | T 2.28 | D 2.76 | C 1.75 | Q 2.34 | L 1.67 | W 2.56 | Y 2.32 | F 2.83 | M 1.98 | S 2.29
P10: A 1.81
T8: R 2.35 | L 2.1 | I 2.12 | K 2.37 | F 2.43 | H 2.15 | Y 2.11 | C 2.01 | Q 2.52 | D 3.14 | W 1.84 | A 2.17 | S 2 | M 1.92 | V 2.04 | G 2.47 | N 2.52 | E 3.34
S3: L 2.19 | I 2.89 | R 3.04 | E 3.81 | D 2.82 | F 1.86 | C 2.33 | Q 3.12 | K 3.71 | H 2.44 | W 2.52 | T 2.77 | M 1.94 | G 3.46 | Y 2.02 | V 3.42 | A 2.15 | N 1.56
P9: F 1.63 | W 1.94 | R 2.29 | C 2.18 | L 2.64 | K 2.45 | S 2.22 | V 1.95 | N 2.24 | Y 1.66 | D 2.78 | G 2.03 | Q 2.22 | I 2.35 | A 2.04 | E 2.58 | T 2.32 | H 3.09 | M 1.8
L6: W 2.97 | H 3.28 | K 4.08 | Y 1.5 | E 3.86 | I 2.63 | V 2.39 | F 2.85 | T 3.28 | G 3.05 | R 4.02 | S 3.13 | D 4.05 | C 2.81 | A 2.58 | M 2.33 | N 3.25 | Q 3.32
H2: T 3.61 | M 4.18 | E 5.07 | I 2.17 | Y 4.04 | K 4.69 | L 3.17 | P 4.29 | W 3.91 | R 4.14 | N 4.71 | G 4.41 | C 3.23 | Q 3.15 | A 3.41 | F 4.01 | V 2.25 | S 4.53 | D 4.75
T7: K 2.69 | L 2.3 | H 1.86 | D 3.48 | R 3.58 | M 3.75 | P 3.56 | W 3.05 | E 4.01 | N 2.84 | F 2.12 | I 2.19 | A 1.72 | Y 2.55 | V 2.49 | C 1.98 | Q 2.39 | G 2.97 | S 1.96
Y1: E 5.28 | W 4.53 | L 4.96 | G 4.91 | V 4.69 | H 4.62 | T 4.76 | A 5.09 | R 4.99 | I 4.77 | N 4.94 | C 4.53 | Q 5.06 | K 4.93 | S 4.93 | D 5.05 | M 4.74 | F 2.7 | P 4.37
